Biological target: H3 1–19 peptide

Chain of PRDM9 (195–415) (Q9NQV7 195-415): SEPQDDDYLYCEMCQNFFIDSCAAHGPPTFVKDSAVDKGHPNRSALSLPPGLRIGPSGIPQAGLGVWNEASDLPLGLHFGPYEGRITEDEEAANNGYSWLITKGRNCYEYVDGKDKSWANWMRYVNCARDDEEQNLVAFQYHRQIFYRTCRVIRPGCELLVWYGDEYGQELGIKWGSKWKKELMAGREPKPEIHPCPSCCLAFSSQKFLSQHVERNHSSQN

PRDM9 (195–415) (from UniProt Q9NQV7 195-415) (enzyme)
methylation of the soluble peptide (2.5 µM peptide, 50 nM enzyme, radioactively labeled AdoMet, autoradiography); ratio of the initial methylation rates H3K4/H3K36 (fold (against the H3K36 26-44 peptide)): 5.2

Source: publication PMC12122940
